Measurements from patent publication US20230220095A1 (ALETA BIOTHERAPEUTICS, published 2023).
Where “and” joins values, the source holds several entries; their conditions need not be identical. Equal values may be shown once.

Columns and labels:
[1] = target: T1, GPRC5D expressed on transfected HEK293 / 293T cells (UniProt Q9NZD1 1-345, limits assumed); test: flow cytometry, titration of fusion protein supernatant on GPRC5D-transfected HEK293 cells, anti-His detection, % Binding
T1 construct: whole, on cells
T1 sequence (Q9NZD1 whole entry, the tested form may be a part): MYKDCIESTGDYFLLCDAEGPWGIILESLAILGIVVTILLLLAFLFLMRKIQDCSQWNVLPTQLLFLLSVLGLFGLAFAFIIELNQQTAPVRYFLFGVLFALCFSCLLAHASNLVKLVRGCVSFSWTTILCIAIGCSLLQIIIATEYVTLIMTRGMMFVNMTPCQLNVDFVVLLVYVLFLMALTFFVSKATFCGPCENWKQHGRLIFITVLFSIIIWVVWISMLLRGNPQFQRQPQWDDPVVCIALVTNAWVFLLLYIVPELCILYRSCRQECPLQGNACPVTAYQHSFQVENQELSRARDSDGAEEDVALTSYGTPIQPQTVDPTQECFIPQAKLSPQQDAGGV

[2] = target: T1, GPRC5D expressed on transfected HEK293 …; test: flow cytometry, titration of fusion protein supernatant on GPRC5D-transfected HEK293 cells, anti-BCMA detection, % Binding
[3] = target: T1, GPRC5D expressed on transfected HEK293 …; test: binding of HEK293 supernatants to GPRC5D-expressing HEK293 cells
[4] = target: T2, CD38 on Daudi cells (human, UniProt P28907 1-300); test: flow cytometry, titration of fusion protein supernatant on Daudi cells (CD38), a-His-PE detection, % Binding
T2 construct: whole, on cells; Endogenous CD38 of Daudi cells
Experimental: (§1) Daudi cells were obtained from ATCC and cultured in RPMI containing 10% FCS. They were stained for BCMA using anti-BCMA-PE labeled antibody (BioLegend, #357504) and for CD38 using anti-CD38-PE labeled antibody (BioLegend, #356604), or stained with BCMA-containing fusion proteins as described herein. The cells were incubated with antibody or supernatant from A493 or A494 producing cells as follows. The Daudi cells were blocked with human Fc block (BD Biosciences, #BDB564129) for 10 minutes, washed and then diluted to 5×10e5 cells per 50 µl. For each sample, 50 µl of cells was aliquoted per well. For the direct stains, 5 µl of antibody in 50 µl was incubated with the cells for 30 minutes at 4° C. After washing with FACS buffer (FB: PBS, 1% BSA, 0.1% sodium azide), the cells were fixed with a final concentration of 2% paraformaldehyde in FB. For the BCMA fusion protein binding, 50 µl of A493 or A494 supernatant or 3x serial dilution of the supernatant in FB, was added and incubated for 30 minutes at 4° C. The cells were washed 2 times with FB and then stained with anti-His-PE antibody (R&D systems, #ICO5OP) or anti-BCMA-PE antibody (BioLegend, #357504) for 30 minutes at 4° C., the cells were pelleted and washed 2 times in FB and then fixed as above. The samples were analyzed on a BD Accuri 6 flow cytometer and analyzed using BD Accuri 6 software.

[5] = target: T2, CD38 on Daudi cells; test: flow cytometry, titration of fusion protein supernatant on Daudi cells (CD38), a-BCMA-PE detection, % Binding
Experimental: as §1

| EC50 [1] | EC50 [2] | binding result [3] | Binder | further results |
| --- | --- | --- | --- | --- |
| 0.00608 µg/mL and 0.182 nM | 0.00225 µg/mL and 0.067 nM | – | anti-GPRC5D scFv-BCMA ECD-His fusion protein, construct 538 (other, scFv of construct 524 - G4Sx3 linker - BCMA ECD - His; also called A538; bridging protein #538) SSELTQDPAVSVALGQTVRITCQGDSLRSYYASWYQQKPGQAPVLVIYGKNNRPSGIPDRFSGSSSGNTASLTITGAQAEDEADYYCNSRDSSGNPPVVFGGGTKLTVLGSRGGGGSGGGGSGGGGSLEMAQVQLVESGGGLVHPGGSLRLSCAASGFTFRSHSMNWVRQAPGKGLEWVSSISSDSTYTYYADSVKGRFTISRDNAKNSLYLQMNSLRAEDTAVYYCARSGGQWKYYDYWGQGTLVTVSSGGGGSGGGGSGGGGSMLQMAGQCSQNEYFDSLLHACIPCQLRCSSNTPPLTCQRYCNASVTNSVKGTNAHHHHHH | – |
| – | – | binds | anti-GPRC5D scFv, construct 525 (scFv, VL-G4Sx3-VH-His; Tested as HEK293 supernatant; also called A525) scFv: QSVVTQPPSMSAAPGQQVTISCSGGNSNIERNYVSWYLQLPGTAPKLVIFDNDRRPSGIPDRFSGSKSGTSATLGITGLQTGDEADYYCGTWDSSLRGWVFGGGTKLTVLGSRGGGGSGGGGSGGGGSLEMAEVQLVESGGGLIQPGGSLRLSCAASGFTFSNYAMNWVRQAPGKGLEWVSTINGRGSSTIYADSVKGRFTISRDNSKNTLYLQMNSLRAEDTATYYCARYISRGLGDSWGQGTLVTVSSHHHHHH | – |
| 0.0156 µg/mL and 0.469 nM | 0.00553 µg/mL and 0.166 nM | – | anti-GPRC5D scFv-BCMA ECD-His fusion protein, construct 537 (other, scFv of construct 523 - linker - BCMA ECD - His; Tested as HEK supernatant; also called A537; anti-GPRC5D-BCMA fusion protein) QSVLTQPPSASGTPGQRVTISCSGSRSNVGGNYVFWYQQVPGATPKLLIYRSNQRPSGVPDRFAGSKSGSSASLAISGLRSEDEADYYCATWDDSLSGFVFGTGTKVTVLGSRGGGGSGGGGSGGGGSLEMAEVQLVESGGGLVKPGGSLRLSCAASGFTFSDYYMSWIRQAPGKGLEWVSYISSSGSTIYYADSVKGRFTISRDNAKNSLYLQMNSLRAEDTAVYYCARGYGKAYDQWGQGTLVTVSSGGGGSGGSMLQMAGQCSQNEYFDSLLHACIPCQLRCSSNTPPLTCQRYCNASVTNSVKGTNAHHHHHH | – |
| – | – | binds | anti-GPRC5D scFv, construct 522 (scFv, VL-G4Sx3-VH-His; Tested as HEK293 supernatant; also called A522) scFv: QSVLTQPASVSGSPGQSLTISCTGTSNDVGAYKYVSWYQQYPGKAPKLILYDVFKRPSGVSNRFSGSKSDNTASLTISGLQAEDEADYYCFSLTSSNTYVFGTGTKVTVLGSRGGGGSGGGGSGGGGSLEMAQMQLVQSGAEVKKPGASVKVSCKASGYTFNRYAITWVRQAPGQGLEWMGWISAYNGNSHYAQKLQGRVTMTTDTSTGTAYMELRRLRSDDTAVYYCARMAYDSWGQGTLVTVSSHHHHHH | – |
| – | – | binds | anti-GPRC5D scFv, construct 524 (scFv, VL-G4Sx3-VH-His; Tested as HEK293 supernatant; also called A524) scFv: SSELTQDPAVSVALGQTVRITCQGDSLRSYYASWYQQKPGQAPVLVIYGKNNRPSGIPDRFSGSSSGNTASLTITGAQAEDEADYYCNSRDSSGNPPVVFGGGTKLTVLGSRGGGGSGGGGSGGGGSLEMAQVQLVESGGGLVHPGGSLRLSCAASGFTFRSHSMNWVRQAPGKGLEWVSSISSDSTYTYYADSVKGRFTISRDNAKNSLYLQMNSLRAEDTAVYYCARSGGQWKYYDYWGQGTLVTVSSHHHHHH | – |
| – | – | binds | anti-GPRC5D scFv, construct 523 (scFv, VL-G4Sx3-VH-His; Tested as HEK293 supernatant; also called A523) scFv: QSVLTQPPSASGTPGQRVTISCSGSRSNVGGNYVFWYQQVPGATPKLLIYRSNQRPSGVPDRFAGSKSGSSASLAISGLRSEDEADYYCATWDDSLSGFVFGTGTKVTVLGSRGGGGSGGGGSGGGGSLEMAEVQLVESGGGLVKPGGSLRLSCAASGFTFSDYYMSWIRQAPGKGLEWVSYISSSGSTIYYADSVKGRFTISRDNAKNSLYLQMNSLRAEDTAVYYCARGYGKAYDQWGQGTLVTVSSHHHHHH | – |
| – | – | – | BCMA-anti-CD38 fusion protein, construct #493 (BCMA ECD N-terminal to the anti-CD38 scFv, C-terminal His tag) (other, also called A493; N-terminal construct) MLQMAGQCSQNEYFDSLLHACIPCQLRCSSNTPPLTCQRYCNASVTNSVKGTNAGGGGSGGGGSGGGGSGGGGSDIQMTQSPSSLSASVGDRVTITCRASQGIRSWLAWYQQKPEKAPKSLIYAASSLQSGVPSRFSGSGSGTDFTLTISSLQPEDFATYYCQQYNSYPLTFGGGTKVEIKGGGGSGGGGSGGGGSGGGGSQVQLVQSGAEVKKPGSSVKVSCKAFGGTFSSYAISWVRQAPGQGLEWMGRIIRFLGIANYAQKFQGRVTLIADKSTNTAYMELSSLRSEDTAVYYCAGEPGERDPDAVDIWGQGTMVTVSSHHHHHH | EC50 [4]: 0.00218 µg/mL and 0.0642 nM; EC50 [5]: 0.0056 µg/mL and 0.165 nM |
| 0.0193 µg/mL and 0.572 nM | 0.00669 µg/mL and 0.198 nM | – | anti-GPRC5D scFv-BCMA ECD-His fusion protein, construct 539 (other, scFv of construct 525 - G4Sx3 linker - BCMA ECD - His; Tested as HEK supernatant; also called A539; anti-GPRC5D-BCMA fusion protein) QSVVTQPPSMSAAPGQQVTISCSGGNSNIERNYVSWYLQLPGTAPKLVIFDNDRRPSGIPDRFSGSKSGTSATLGITGLQTGDEADYYCGTWDSSLRGWVFGGGTKLTVLGSRGGGGSGGGGSGGGGSLEMAEVQLVESGGGLIQPGGSLRLSCAASGFTFSNYAMNWVRQAPGKGLEWVSTINGRGSSTIYADSVKGRFTISRDNSKNTLYLQMNSLRAEDTATYYCARYISRGLGDSWGQGTLVTVSSGGGGSGGGGSGGGGSMLQMAGQCSQNEYFDSLLHACIPCQLRCSSNTPPLTCQRYCNASVTNSVKGTNAHHHHHH | – |
| 0.86 nM and 0.0287 µg/mL | 0.00509 µg/mL and 0.152 nM | – | anti-GPRC5D scFv-BCMA ECD-His fusion protein, construct 536 (other, scFv of construct 522 - linker - BCMA ECD - His; Tested as HEK supernatant; also called A536; anti-GPRC5D-BCMA fusion protein) QSVLTQPASVSGSPGQSLTISCTGTSNDVGAYKYVSWYQQYPGKAPKLILYDVFKRPSGVSNRFSGSKSDNTASLTISGLQAEDEADYYCFSLTSSNTYVFGTGTKVTVLGSRGGGGSGGGGSGGGGSLEMAQMQLVQSGAEVKKPGASVKVSCKASGYTFNRYAITWVRQAPGQGLEWMGWISAYNGNSHYAQKLQGRVTMTTDTSTGTAYMELRRLRSDDTAVYYCARMAYDSWGQGTLVTVSSGGGGSGGGGSMLQMAGQCSQNEYFDSLLHACIPCQLRCSSNTPPLTCQRYCNASVTNSVKGTNAHHHHHH | – |
| – | – | – | BCMA-anti-CD38 fusion protein, construct #494 (BCMA ECD C-terminal to the anti-CD38 scFv, C-terminal His tag) (other, also called A494) DIQMTQSPSSLSASVGDRVTITCRASQGIRSWLAWYQQKPEKAPKSLIYAASSLQSGVPSRFSGSGSGTDFTLTISSLQPEDFATYYCQQYNSYPLTFGGGTKVEIKGGGGSGGGGSGGGGSGGGGSQVQLVQSGAEVKKPGSSVKVSCKAFGGTFSSYAISWVRQAPGQGLEWMGRIIRFLGIANYAQKFQGRVTLIADKSTNTAYMELSSLRSEDTAVYYCAGEPGERDPDAVDIWGQGTMVTVSSGGGGSGGGGSGGGGSGGGGSMLQMAGQCSQNEYFDSLLHACIPCQLRCSSNTPPLTCQRYCNASVTNSVKGTNAHHHHHH | EC50 [4]: 0.00315 µg/mL and 0.093 nM; EC50 [5]: 0.0123 µg/mL and 0.364 nM |
